The values that follow come from the supplement of paper PMC9170038.

The data set has as its system K4 kissing-loop RNA reporter. Kind of data set: apparent KD of K4 kissing-loop reporter; higher = weaker reporter binding. As to conditions: Eterna round: R107. The method, then: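 RNA-MaP round R107: designed RNA switches with theophylline, tryptophan, arginine or FMN aptamers are transcribed on-chip within common flanks. They are titrated with a labelled K4 kissing-loop RNA reporter in RNA-MaP buffer (100 mM Tris pH 7.5, 80 mM KCl, 4 mM MgCl2), without ligand or with the indicated ligand. Median apparent KD per design.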

Setting [1] is: input ligand: theophylline 20 uM.
Where [2] appears, read: input ligand: tryptophan 2.4 mM.
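Also: bound reporter read as fluorescence of individual clusters on recovered sequencing chips by microscopy, with normalized cluster intensities fitted with a binding model.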

Turning to “AAAACUAUCAGAAGGAGCGUGGAAUAUUCAUCUGUAUUUAAUACGAGUGAUGUUCGUAAUUCACAGGUAGGUCGCUGAUCAAUAA [whbob_Ex_Arginine_B_2th154]”, the “apparent KD of K4 kissing-loop reporter” value runs as follows: (input ligand: FMN 200 uM) 269 nM; (input ligand: arginine 13.2 mM) 253 nM; (input ligand: none) 306 nM; under setting [1], 305 nM; under setting [2], 254 nM.

Turning to “AAAAUAAGCCAGUGAUGUUGGUAUACAGAUACCAGCGACGAAAGUCGCCCUUGGCAGCUGUGGACGUACAAAAUAAGUACGUCCU”, the “apparent KD of K4 kissing-loop reporter” value runs as follows: (input ligand: FMN 200 uM) 364 nM; (input ligand: arginine 13.2 mM) 278 nM; (input ligand: none) 417 nM; under setting [1], 780 nM; under setting [2], 364 nM.

For “AAAAUAAGCCAGUGAUGUUGGUAUCCAGAUACCAGCGACGAAAGUCGCCCUUGGCAGCUGUGGACGUACAAAAUAAGUACGUCCU”, the “apparent KD of K4 kissing-loop reporter” value reads like this: (input ligand: FMN 200 uM) 194 nM; (input ligand: arginine 13.2 mM) 107 nM; (input ligand: none) 143 nM; under setting [1], 266 nM; under setting [2], 126 nM.

Regarding “AAACAUCACUGGGAGUGAUGUUCUCAGUGACGAGGACCGGUACGGCCGCCACUCGCGAGAGAUAUAGAUAAGUAAUGACAUCAUU [Excl Tryptophan A V4]”, the “apparent KD of K4 kissing-loop reporter” value by setting is: (input ligand: FMN 200 uM) 347 nM; (input ligand: arginine 13.2 mM) 298 nM; (input ligand: none) 354 nM; under setting [1], 390 nM; under setting [2], 433 nM.

Turning to “AAACAUCACUGGGAGUGAUGUUCUCAGUGACGAGGACCGGUACGGCCGCCACUCGCGAGAGAUAUAGUUAAGUAAUGACUGCAUU [Excl Tryptophan A V7]”, the “apparent KD of K4 kissing-loop reporter” value runs as follows: (input ligand: FMN 200 uM) 324 nM; (input ligand: arginine 13.2 mM) 251 nM; (input ligand: none) 294 nM; under setting [1], 333 nM; under setting [2], 324 nM.

Take “AAACAUCACUGGGAGUGAUGUUCUCAGUGACGAGGACCGGUACGGCCGCCACUCGCGAGAGAUCUAGUCUAGUCUUGACUGCAUU [Excl Tryptophan A V13]”: the “apparent KD of K4 kissing-loop reporter” value runs as follows: (input ligand: FMN 200 uM) 282 nM; (input ligand: arginine 13.2 mM) 284 nM; (input ligand: none) 292 nM; under setting [1], 359 nM; under setting [2], 333 nM.

Regarding “AAACAUUGGUCUGAUACCAGCUGAUCGGAAACGAUCUUGCUGGAGUGAUGUUCCAAGUAAAGCCCUUGGCAGCAGACCGAUGAAA [MAT - Same State Theophlline B - Mod of Eli - D19]”, the “apparent KD of K4 kissing-loop reporter” value (input ligand: FMN 200 uM) is 108 nM; the “apparent KD of K4 kissing-loop reporter” value (input ligand: arginine 13.2 mM) is 53.3 nM; the “apparent KD of K4 kissing-loop reporter” value (input ligand: none) amounted to 72.6 nM; the “apparent KD of K4 kissing-loop reporter” value under setting [1] is 107 nM; the “apparent KD of K4 kissing-loop reporter” value under setting [2] amounted to 81.8 nM.

For “AAACGCUGGAUGAAUAACAUCUAGCGAAUUCGAGGACCGGUACGGCCGCCACUCGAGCUAACUGCGAGUGAUGUUCGAUAAUAAA [Mat - Mod of OpenEnded 3 - D1]”, the “apparent KD of K4 kissing-loop reporter” value (input ligand: FMN 200 uM) came out at 306 nM; the “apparent KD of K4 kissing-loop reporter” value (input ligand: arginine 13.2 mM) amounted to 451 nM; the “apparent KD of K4 kissing-loop reporter” value (input ligand: none) was determined as 441 nM; the “apparent KD of K4 kissing-loop reporter” value under setting [1] is 524 nM; the “apparent KD of K4 kissing-loop reporter” value under setting [2] came to 80.9 nM.

For the sequence “AAACGUCGGAAGUGAUGUUGAUGACGUAGUAAGGAUAUUGGACGCGCAAGAAGGUACUGGCAAACUAAGGACAUCCUGGAUAUUC [theeternabot_exclusion_KL_FMN_A_47]”, the “apparent KD of K4 kissing-loop reporter” value reads like this: (input ligand: FMN 200 uM) 330 nM; (input ligand: arginine 13.2 mM) 251 nM; (input ligand: none) 232 nM; under setting [1], 243 nM; under setting [2], 254 nM.

For the sequence “AAACGUUGGUCGGAUACCAGCUUGAUCGGAAAACGAUCUGCUGGAGUGAUGUUCCAAUAAAGCCCUUGGCAGCCGACCGACGAAA [MAT - Same State Theophlline B - Mod of Eli - D15]”, the “apparent KD of K4 kissing-loop reporter” value reads like this: (input ligand: FMN 200 uM) 662 nM; (input ligand: arginine 13.2 mM) 659 nM; (input ligand: none) 1030 nM; under setting [1], 746 nM; under setting [2], 747 nM.

As to “AAACUUGCAGUGAUGUUGCAAGUAGGUGAUACCAGCAUCGAAAGAUGCCCUUGGCAGCACCAAAACAUCACUUAGGUAUCACCAA [(H1)-(H2)-(T1)-(T2)-(H)'-(T)'_Design3]”, the “apparent KD of K4 kissing-loop reporter” value is, setting by setting: (input ligand: FMN 200 uM) 191 nM; (input ligand: arginine 13.2 mM) 192 nM; (input ligand: none) 210 nM; under setting [1], 234 nM; under setting [2], 175 nM.

Take “AAAGAUCUUCUAGAAACUAGAAGAUCAAGAGAGGAUAUCCGAAUUCGGAGAAGGCUCACUAAGUGAUGUUUGGAGCCAAUGGCAA [AK2 SS FMN A]”: the “apparent KD of K4 kissing-loop reporter” value was determined as 1060 nM (input ligand: FMN 200 uM); 1100 nM (input ligand: arginine 13.2 mM); 1210 nM (input ligand: none); 1090 nM under setting [1]; 932 nM under setting [2].

“AAAUAGAUCAGUCACCCAGUGAUGUUGGAAGGAGCGUGCGAAAGCACAGGUAGGUCGCCAGAAUAAAAUUGGCUGAUCAAAAUAA”: the “apparent KD of K4 kissing-loop reporter” value runs as follows: (input ligand: FMN 200 uM) 260 nM; (input ligand: arginine 13.2 mM) 337 nM; (input ligand: none) 212 nM; under setting [1], 393 nM; under setting [2], 149 nM.

On to “AAAUAGAUCAGUCAUCCAGUGAUGUUGGAAGGAGCGUGCGAAAGCACAGGUAGGUCGCCAAAAUAAAACUGGCUGAUCAAAAUAA”, for which the “apparent KD of K4 kissing-loop reporter” value turned out to be 292 nM (input ligand: FMN 200 uM); 292 nM (input ligand: arginine 13.2 mM); 338 nM (input ligand: none); 453 nM under setting [1]; 270 nM under setting [2].

Take “AAAUAGAUCAGUCAUCCAGUGAUGUUGGAAGGAGCGUGCGAAAGCACAGGUAGGUCGCCGAAAUAAAAGUGGCUGAUCAAAAUAA”: the “apparent KD of K4 kissing-loop reporter” value runs as follows: (input ligand: FMN 200 uM) 128 nM; (input ligand: arginine 13.2 mM) 216 nM; (input ligand: none) 143 nM; under setting [1], 193 nM; under setting [2], 102 nM.
